Experimental data published in patent US20260242419A1, “A CYCLIC PEPTIDE FOR TRAPPING INTERLEUKIN-1 BETA” (Merck Sharp & Dohme LLC, priority 2023, published 2026).
Starred links: 1 amine or outer side, 2 acyl side, 3 side chain; linkers in the order of their positions; H or OH if unused. Non-standard residues stand in square brackets, D forms with d. dProc3Bn4Pyrim2OMe = (2R,3S)-3-[[4-(2-methoxypyrimidin-5-yl)phenyl]methyl]pyrrolidine-2-carboxylic acid, COc1ncc(-c2ccc(C[C@H]3CCN([*:1])[C@H]3C(=O)[*:2])cc2)cn1; dProc3Bn4Pyrim2NH2 = (2R,3S)-3-[[4-(2-aminopyrimidin-5-yl)phenyl]methyl]pyrrolidine-2-carboxylic acid, Nc1ncc(-c2ccc(C[C@H]3CCN([*:1])[C@H]3C(=O)[*:2])cc2)cn1; dProc3Bn4Pyraz5NH2 = (2R,3S)-3-[[4-(5-aminopyrazin-2-yl)phenyl]methyl]pyrrolidine-2-carboxylic acid, Nc1cnc(-c2ccc(C[C@H]3CCN([*:1])[C@H]3C(=O)[*:2])cc2)cn1; dProc3Bn4Im4NMe = (2R,3S)-3-(4-(1-methyl-1H-imidazol-4-yl)benzyl)pyrrolidine-2-carboxylic acid, Cn1cnc(-c2ccc(C[C@H]3CCN([*:1])[C@H]3C(=O)[*:2])cc2)c1; dProc3Bn4Im2NMe = (2R,3S)-3-(4-(1-methyl-1H-imidazol-2-yl)benzyl)pyrrolidine-2-carboxylic acid, Cn1ccnc1-c1ccc(C[C@H]2CCN([*:1])[C@H]2C(=O)[*:2])cc1; dProc3Bn4Iso3Me = (2R,3S)-3-(4-(3-methylisoxazol-4-yl)benzyl)pyrrolidine-2-carboxylic acid, Cc1nocc1-c1ccc(C[C@H]2CCN([*:1])[C@H]2C(=O)[*:2])cc1; dProc3Bn4Pyrz = (2R,3S)-3-[(4-pyridazin-4-ylphenyl)methyl]pyrrolidine-2-carboxylic acid, O=C([C@H]1[C@@H](Cc2ccc(-c3ccnnc3)cc2)CCN1[*:1])[*:2]; dProc3Bn4Pyr2 = (2R,3S)-3-[[4-(2-pyridyl)phenyl]methyl]pyrrolidine-2-carboxylic acid, O=C([C@H]1[C@@H](Cc2ccc(-c3ccccn3)cc2)CCN1[*:1])[*:2]; dProc3Bn4Pyr3 = (2R,3S)-3-[[4-(3-pyridyl)phenyl]methyl]pyrrolidine-2-carboxylic acid, O=C([C@H]1[C@@H](Cc2ccc(-c3cccnc3)cc2)CCN1[*:1])[*:2]; dProc3Bn4Pyr4 = (2R,3S)-3-[[4-(4-pyridyl)phenyl]methyl]pyrrolidine-2-carboxylic acid, O=C([C@H]1[C@@H](Cc2ccc(-c3ccncc3)cc2)CCN1[*:1])[*:2]; Trp(βS-Me,4-F) = C[C@@H](c1c[nH]c2cccc(F)c12)[C@H](N)C(=O)O; Bip(4'-COOH) = N[C@@H](Cc1ccc(-c2ccc(C(=O)O)cc2)cc1)C(=O)O; dPro(4R-Bzl(4-F)) = O=C(O)[C@H]1C[C@@H](Cc2ccc(F)cc2)CN1; Ala(pyrimidin-5-yl) = N[C@@H](Cc1cncnc1)C(=O)O; Phe(4-COOH) = N[C@@H](Cc1ccc(C(=O)O)cc1)C(=O)O; Pro(cis-4-F) = O=C(O)[C@@H]1C[C@H](F)CN1; 4Pal = N[C@@H](Cc1ccncc1)C(=O)O; Api = NC1(C(=O)O)CCNCC1; Dab = NCC[C@H](N)C(=O)O; Aib = CC(C)(N)C(=O)O

B1: SEQ ID NO: 62 (peptide)
peptide: cyclo([Bip(4'-COOH)][4Pal][Phe(4-COOH)]G[Pro(cis-4-F)][Trp(βS-Me,4-F)][Aib]EW[Aib][Ala(pyrimidin-5-yl)]Q[Dab]G[dProc3Bn4Iso3Me])
SMILES: Cc1nocc1-c1ccc(C[C@H]2CCN3C(=O)CNC(=O)[C@H](CCN)NC(=O)[C@H](CCC(N)=O)NC(=O)[C@H](Cc4cncnc4)NC(=O)C(C)(C)NC(=O)[C@H](Cc4c[nH]c5ccccc45)NC(=O)[C@H](CCC(=O)O)NC(=O)C(C)(C)NC(=O)[C@H]([C@@H](C)c4c[nH]c5cccc(F)c45)NC(=O)[C@@H]4C[C@H](F)CN4C(=O)CNC(=O)[C@H](Cc4ccc(C(=O)O)cc4)NC(=O)[C@H](Cc4ccncc4)NC(=O)[C@H](Cc4ccc(-c5ccc(C(=O)O)cc5)cc4)NC(=O)[C@@H]23)cc1
B2: SEQ ID NO: 55 (peptide)
peptide: cyclo([Bip(4'-COOH)][4Pal][Phe(4-COOH)]G[Pro(cis-4-F)][Trp(βS-Me,4-F)][Aib]EW[Aib][Ala(pyrimidin-5-yl)]Q[Dab]G[dProc3Bn4Pyr4])
SMILES: C[C@@H](c1c[nH]c2cccc(F)c12)[C@@H]1NC(=O)[C@@H]2C[C@H](F)CN2C(=O)CNC(=O)[C@H](Cc2ccc(C(=O)O)cc2)NC(=O)[C@H](Cc2ccncc2)NC(=O)[C@H](Cc2ccc(-c3ccc(C(=O)O)cc3)cc2)NC(=O)[C@H]2[C@@H](Cc3ccc(-c4ccncc4)cc3)CCN2C(=O)CNC(=O)[C@H](CCN)NC(=O)[C@H](CCC(N)=O)NC(=O)[C@H](Cc2cncnc2)NC(=O)C(C)(C)NC(=O)[C@H](Cc2c[nH]c3ccccc23)NC(=O)[C@H](CCC(=O)O)NC(=O)C(C)(C)NC1=O
B3: SEQ ID NO: 58 (peptide)
peptide: cyclo([Bip(4'-COOH)][4Pal][Phe(4-COOH)]G[Pro(cis-4-F)][Trp(βS-Me,4-F)][Aib]EW[Aib][Ala(pyrimidin-5-yl)]Q[Dab]G[dProc3Bn4Pyrz])
SMILES: C[C@@H](c1c[nH]c2cccc(F)c12)[C@@H]1NC(=O)[C@@H]2C[C@H](F)CN2C(=O)CNC(=O)[C@H](Cc2ccc(C(=O)O)cc2)NC(=O)[C@H](Cc2ccncc2)NC(=O)[C@H](Cc2ccc(-c3ccc(C(=O)O)cc3)cc2)NC(=O)[C@H]2[C@@H](Cc3ccc(-c4ccnnc4)cc3)CCN2C(=O)CNC(=O)[C@H](CCN)NC(=O)[C@H](CCC(N)=O)NC(=O)[C@H](Cc2cncnc2)NC(=O)C(C)(C)NC(=O)[C@H](Cc2c[nH]c3ccccc23)NC(=O)[C@H](CCC(=O)O)NC(=O)C(C)(C)NC1=O
B4: SEQ ID NO: 61 (peptide)
peptide: cyclo([Bip(4'-COOH)][4Pal][Phe(4-COOH)]G[Pro(cis-4-F)][Trp(βS-Me,4-F)][Aib]EW[Aib][Ala(pyrimidin-5-yl)]Q[Dab]G[dProc3Bn4Pyr2])
SMILES: C[C@@H](c1c[nH]c2cccc(F)c12)[C@@H]1NC(=O)[C@@H]2C[C@H](F)CN2C(=O)CNC(=O)[C@H](Cc2ccc(C(=O)O)cc2)NC(=O)[C@H](Cc2ccncc2)NC(=O)[C@H](Cc2ccc(-c3ccc(C(=O)O)cc3)cc2)NC(=O)[C@H]2[C@@H](Cc3ccc(-c4ccccn4)cc3)CCN2C(=O)CNC(=O)[C@H](CCN)NC(=O)[C@H](CCC(N)=O)NC(=O)[C@H](Cc2cncnc2)NC(=O)C(C)(C)NC(=O)[C@H](Cc2c[nH]c3ccccc23)NC(=O)[C@H](CCC(=O)O)NC(=O)C(C)(C)NC1=O
B5: SEQ ID NO: 57 (peptide)
peptide: cyclo([Bip(4'-COOH)][4Pal][Phe(4-COOH)]G[Pro(cis-4-F)][Trp(βS-Me,4-F)][Aib]EW[Aib][Ala(pyrimidin-5-yl)]Q[Dab]G[dProc3Bn4Pyraz5NH2])
SMILES: C[C@@H](c1c[nH]c2cccc(F)c12)[C@@H]1NC(=O)[C@@H]2C[C@H](F)CN2C(=O)CNC(=O)[C@H](Cc2ccc(C(=O)O)cc2)NC(=O)[C@H](Cc2ccncc2)NC(=O)[C@H](Cc2ccc(-c3ccc(C(=O)O)cc3)cc2)NC(=O)[C@H]2[C@@H](Cc3ccc(-c4cnc(N)cn4)cc3)CCN2C(=O)CNC(=O)[C@H](CCN)NC(=O)[C@H](CCC(N)=O)NC(=O)[C@H](Cc2cncnc2)NC(=O)C(C)(C)NC(=O)[C@H](Cc2c[nH]c3ccccc23)NC(=O)[C@H](CCC(=O)O)NC(=O)C(C)(C)NC1=O
B6: SEQ ID NO: 63 (peptide)
peptide: cyclo([Bip(4'-COOH)][4Pal][Phe(4-COOH)]G[Pro(cis-4-F)][Trp(βS-Me,4-F)][Aib]EW[Aib][Ala(pyrimidin-5-yl)]Q[Dab]G[dProc3Bn4Im2NMe])
SMILES: C[C@@H](c1c[nH]c2cccc(F)c12)[C@@H]1NC(=O)[C@@H]2C[C@H](F)CN2C(=O)CNC(=O)[C@H](Cc2ccc(C(=O)O)cc2)NC(=O)[C@H](Cc2ccncc2)NC(=O)[C@H](Cc2ccc(-c3ccc(C(=O)O)cc3)cc2)NC(=O)[C@H]2[C@@H](Cc3ccc(-c4nccn4C)cc3)CCN2C(=O)CNC(=O)[C@H](CCN)NC(=O)[C@H](CCC(N)=O)NC(=O)[C@H](Cc2cncnc2)NC(=O)C(C)(C)NC(=O)[C@H](Cc2c[nH]c3ccccc23)NC(=O)[C@H](CCC(=O)O)NC(=O)C(C)(C)NC1=O
B7: SEQ ID NO: 60 (peptide)
peptide: cyclo([Bip(4'-COOH)][4Pal][Phe(4-COOH)]G[Pro(cis-4-F)][Trp(βS-Me,4-F)][Aib]EW[Aib][Ala(pyrimidin-5-yl)]Q[Dab]G[dProc3Bn4Pyrim2OMe])
SMILES: COc1ncc(-c2ccc(C[C@H]3CCN4C(=O)CNC(=O)[C@H](CCN)NC(=O)[C@H](CCC(N)=O)NC(=O)[C@H](Cc5cncnc5)NC(=O)C(C)(C)NC(=O)[C@H](Cc5c[nH]c6ccccc56)NC(=O)[C@H](CCC(=O)O)NC(=O)C(C)(C)NC(=O)[C@H]([C@@H](C)c5c[nH]c6cccc(F)c56)NC(=O)[C@@H]5C[C@H](F)CN5C(=O)CNC(=O)[C@H](Cc5ccc(C(=O)O)cc5)NC(=O)[C@H](Cc5ccncc5)NC(=O)[C@H](Cc5ccc(-c6ccc(C(=O)O)cc6)cc5)NC(=O)[C@@H]34)cc2)cn1
B8: SEQ ID NO: 6 (peptide)
peptide: cyclo([Bip(4'-COOH)][4Pal][Phe(4-COOH)]G[Pro(cis-4-F)][Trp(βS-Me,4-F)][Aib]AW[Aib][Ala(pyrimidin-5-yl)]Q[Dab]G[dPro(4R-Bzl(4-F))])
SMILES: C[C@@H]1NC(=O)C(C)(C)NC(=O)[C@H]([C@@H](C)c2c[nH]c3cccc(F)c23)NC(=O)[C@@H]2C[C@H](F)CN2C(=O)CNC(=O)[C@H](Cc2ccc(C(=O)O)cc2)NC(=O)[C@H](Cc2ccncc2)NC(=O)[C@H](Cc2ccc(-c3ccc(C(=O)O)cc3)cc2)NC(=O)[C@H]2C[C@@H](Cc3ccc(F)cc3)CN2C(=O)CNC(=O)[C@H](CCN)NC(=O)[C@H](CCC(N)=O)NC(=O)[C@H](Cc2cncnc2)NC(=O)C(C)(C)NC(=O)[C@H](Cc2c[nH]c3ccccc23)NC1=O
B9: SEQ ID NO: 59 (peptide)
peptide: cyclo([Bip(4'-COOH)][4Pal][Phe(4-COOH)]G[Pro(cis-4-F)][Trp(βS-Me,4-F)][Aib]EW[Aib][Ala(pyrimidin-5-yl)]Q[Dab]G[dProc3Bn4Pyrim2NH2])
SMILES: C[C@@H](c1c[nH]c2cccc(F)c12)[C@@H]1NC(=O)[C@@H]2C[C@H](F)CN2C(=O)CNC(=O)[C@H](Cc2ccc(C(=O)O)cc2)NC(=O)[C@H](Cc2ccncc2)NC(=O)[C@H](Cc2ccc(-c3ccc(C(=O)O)cc3)cc2)NC(=O)[C@H]2[C@@H](Cc3ccc(-c4cnc(N)nc4)cc3)CCN2C(=O)CNC(=O)[C@H](CCN)NC(=O)[C@H](CCC(N)=O)NC(=O)[C@H](Cc2cncnc2)NC(=O)C(C)(C)NC(=O)[C@H](Cc2c[nH]c3ccccc23)NC(=O)[C@H](CCC(=O)O)NC(=O)C(C)(C)NC1=O
B10: SEQ ID NO: 64 (peptide)
peptide: cyclo([Bip(4'-COOH)][4Pal][Phe(4-COOH)]G[Pro(cis-4-F)][Trp(βS-Me,4-F)][Aib]EW[Aib][Ala(pyrimidin-5-yl)]Q[Dab]G[dProc3Bn4Im4NMe])
SMILES: C[C@@H](c1c[nH]c2cccc(F)c12)[C@@H]1NC(=O)[C@@H]2C[C@H](F)CN2C(=O)CNC(=O)[C@H](Cc2ccc(C(=O)O)cc2)NC(=O)[C@H](Cc2ccncc2)NC(=O)[C@H](Cc2ccc(-c3ccc(C(=O)O)cc3)cc2)NC(=O)[C@H]2[C@@H](Cc3ccc(-c4cn(C)cn4)cc3)CCN2C(=O)CNC(=O)[C@H](CCN)NC(=O)[C@H](CCC(N)=O)NC(=O)[C@H](Cc2cncnc2)NC(=O)C(C)(C)NC(=O)[C@H](Cc2c[nH]c3ccccc23)NC(=O)[C@H](CCC(=O)O)NC(=O)C(C)(C)NC1=O
B11: SEQ ID NO: 65 (peptide)
peptide: cyclo([Bip(4'-COOH)][4Pal][Phe(4-COOH)]G[Pro(cis-4-F)][Trp(βS-Me,4-F)][Aib]EW[Api][Ala(pyrimidin-5-yl)]Q[Dab]G[dPro(4R-Bzl(4-F))])
SMILES: C[C@@H](c1c[nH]c2cccc(F)c12)[C@@H]1NC(=O)[C@@H]2C[C@H](F)CN2C(=O)CNC(=O)[C@H](Cc2ccc(C(=O)O)cc2)NC(=O)[C@H](Cc2ccncc2)NC(=O)[C@H](Cc2ccc(-c3ccc(C(=O)O)cc3)cc2)NC(=O)[C@H]2C[C@@H](Cc3ccc(F)cc3)CN2C(=O)CNC(=O)[C@H](CCN)NC(=O)[C@H](CCC(N)=O)NC(=O)[C@H](Cc2cncnc2)NC(=O)C2(CCNCC2)NC(=O)[C@H](Cc2c[nH]c3ccccc23)NC(=O)[C@H](CCC(=O)O)NC(=O)C(C)(C)NC1=O
B12: SEQ ID NO: 56 (peptide)
peptide: cyclo([Bip(4'-COOH)][4Pal][Phe(4-COOH)]G[Pro(cis-4-F)][Trp(βS-Me,4-F)][Aib]EW[Aib][Ala(pyrimidin-5-yl)]Q[Dab]G[dProc3Bn4Pyr3])
SMILES: C[C@@H](c1c[nH]c2cccc(F)c12)[C@@H]1NC(=O)[C@@H]2C[C@H](F)CN2C(=O)CNC(=O)[C@H](Cc2ccc(C(=O)O)cc2)NC(=O)[C@H](Cc2ccncc2)NC(=O)[C@H](Cc2ccc(-c3ccc(C(=O)O)cc3)cc2)NC(=O)[C@H]2[C@@H](Cc3ccc(-c4cccnc4)cc3)CCN2C(=O)CNC(=O)[C@H](CCN)NC(=O)[C@H](CCC(N)=O)NC(=O)[C@H](Cc2cncnc2)NC(=O)C(C)(C)NC(=O)[C@H](Cc2c[nH]c3ccccc23)NC(=O)[C@H](CCC(=O)O)NC(=O)C(C)(C)NC1=O

These binders were tested against Recombinant human IL-1β (BioLegend 579404) (human, UniProt P01584 117-269) (assay: cell-based or functional assay).

MRC5 IC50 | Binder
0.021 nM | B1
0.024 nM | B2
0.037 nM | B3
0.022 nM | B4
0.019 nM | B5
0.018 nM | B6
0.018 nM | B7
0.057 nM | B8
0.018 nM | B9
0.014 nM | B10
0.025 nM | B11
0.022 nM | B12
